According to patent publication US11723946B2, “Methods for regulating transcription of multiple genes and expression of multiple targets” (CHINA MEDICAL UNIVERSITY, priority 2014, dated 2023):

Tests used:
[1] = system: Muscle (IGF and adipocytokine signaling pathway genes); conditions: 2.5 mmol/kg daily, 7 days
Procedure: The wild-type FVB mice were divided into the control group and the experimental group, wherein the mice in the experimental group were daily administered with 20 μl peptide-containing solution that contains 2.5 mmol/kg of the present peptide for 7 days. Moreover, the mice in the control group were daily administrated with 20 μl PBS solution for 7 days.
After the daily administration, the tissues of column, muscle, fat pad, liver and kidney were collected for analyzing the expression of multiple targets by system biology analysis. Herein, the altered expressions of the targets in the genome were determined by using DNA microarray which is a well-established tool for systematic biology analysis. Furthermore, the results of the DNA microarray were further categorized and analyzed by bioinformatics analysis to determine the effect and affected signaling pathways of the present polypeptide.
(1) RNA preparation: The total RNA was extracted from the tissue by using RNeasy Mini Kit (Qiagen, Valencia, Calif., USA). The amount of the extracted total RNA was measured by Beckman DU800 spectrophotometer (Beckman Coulter, Fullerton, Calif., USA). In the next step, the quality of the RNA sample with A260/A280 ratio more than 1.8 was further evaluated by Agilent 2100 bioanalyzer (Agilent Technologies, Santa Clara, Calif., USA). When with the RNA integrity number of the sample is more than 8.0, it would be analyzed by the following microarray analysis.
(2) DNA microarray analysis: The procedure of DNA microarray analysis was conducted according to the reference (Cheng, 2007). Briefly, 5 μg of total RNA was amplified by in vitro transcription using MessageAmp™ aRNA kit (Ambion). In the following, the fluorescence dye, Cy5, was chemically labeled on the amplified RNA (aRNA). After the labeling, the fluorescence labeled aRNA was hybridized with Whole Genome OneArray™ in hybridization buffer (Phalanx Biotech Group, Taiwan) on cover slide. Following the hybridization reaction at 50° C. over-night, the non-specific binding on the chip was washed by three washing steps. The washed chip was dried by centrifugation and was scanned by Axon 4000 scanner (Molecular Devices, Sunnyvale, Calif., USA) to measure the fluorescence signals. The fluorescence intensity of Cy5 on each spots was further analyzed by genepix 4.1 (Molecular Devices). First, the signals of each spot were adjusted by deducting the intensity of background. In the next step, the spots including the probes of internal controls or the spots with the signal-to-noise ratios less than 0 would be removed. The qualified spots were normalized by limma package which is belonged to R console (Smyth, 2005).

[2] = Fat accumulation in genetic deficient mice with massive abdominal fat; assay type: in vivo
Procedure: The mice were divided into control group and experimental group. […] In addition, the mice in the control group were peritoneally injections with 100 ul of PBS.
During the treatment period, the body weight and dietary intake of the mice were recorded at the regular time points. After the treatment, the gross views of whole animals were recorded by photographing. In the following, the fat pads of the mice were collected for the measurement of fat pad weight. The histological examination was performed to determine the number and size of the adipocytes in the mice of the both groups. Furthermore, the percentage of body fat was calculated according the formulation: (fat weight/body weight)×100%, and shown in table 4.

NF-κB = assay: Ex vivo bioluminescent imaging of organs, LPS-induced NF-κB/luc transgenic mice; assay type: in vivo
Procedure: The mice of the three groups manipulated in example 3 were abdominally injected with 150 mg/Kg luciferin. After luciferin injection for 5 minutes, the mice were sacrificed and the tissues including brain, heart, lung, liver, spleen, stomach, kidney, ovary and intestine were rapidly removed. The collected tissues were placed in the IVIS Imaging System-200 Series (Xenogen, Hopkinton, Mass.) and imaged with the same setting used for in vivo bioluminescent imaging.
In the table 2, the average of luciferin value in the mice of the group 2 was divided to average of luciferin value in the mice of the group 1 to obtain the fold change. In table 3, the average of luciferin value in the mice of the group 3 was divided to the average of luciferin value in the mice of the group 2 to obtain the fold change.

[3] = system: 4-hydroxynonenal, malondialdehyde; assay: IHC of lipid oxidation products in hepatic tissue, high fat diet mice; assay type: in vivo; conditions: 10 mmol/kg peritoneal injection twice weekly, 4 weeks, group 3 vs group 2
Procedure: (§1) 30 wild-type FVB mice were randomly divided into three groups, wherein the mice of the group 1 were the blank group that were fed with normal condition. The mice of the control group (the group 2) and the experimental group (the group 3) were fed with high fat diet. […] The mice in the group 2 and the group 3 were peritoneally injected with 100 μl of PBS.
(§2) After the administration, livers in the mice of the each group were collected for the histology sections. The hepatic histology of livers in the mice of the each group was […] for H&E staining and oil red-O staining to examined the lipid accumulation in liver, respectively. Furthermore, the product of lipid oxidation in hepatocytes was examined by IHC staining described in example 3 with antibodies against 4-hydroxynonenal ([…]) or malondialdehyde (MDA) on the hepatic tissues of the each group.

[4] = Hepatic histology (H&E, oil red-O) in high fat diet mice; assay type: in vivo; conditions: 10 mmol/kg peritoneal injection twice weekly, 4 weeks, group 3 vs group 2
Procedure: as §1, §2

[5] = Adipocytokine signaling pathway, Down-regulated
[6] = IGF signaling pathway, Up-regulated
[7] = experimental group vs control group, in words
[8] = group 3 (LPS + 0.5 mg/Kg polypeptide IP) vs group 2 (LPS), down-regulation
[9] = group 3 (LPS + 0.5 mg/Kg polypeptide IP) vs group 2 (LPS), up-regulation

B1: present polypeptide: polypeptide comprising the amino acid sequence of SEQ ID No. 1; made by peptide synthesis, recombinant expression or extraction from Momordica charantia (peptide, listed as Artificial synthsis)
chain: SRCQGKSSWPQLVGSTGAAAKAWIERENPRVRAVIIKVGSGATKDFRCDRVRVWVTERGIVARPPTIG
In the case of B1, the “Fold, Acsl1” value [1, 5] is reported as 4.56 folds, the “Fold, Akt1” value [1, 5] is reported as 1.57 folds and the “Fold, Cd36” value [1, 5] is reported as 2.42 folds. The “Fold, Nfkbia” value [1, 5] was 2.55 folds, the “Fold, Prkag1” value [1, 5] was 1.93 folds and the “Fold, Ptpn11” value [1, 5] was 2.31 folds. The “Fold, Stat3” value [1, 5] was 1.55 folds, the “Fold, Adprt1” value [1, 6] was “Up-regulated 1.9 folds” and the “Fold, Cabin1” value [1, 6] was “Up-regulated 2.4 folds”. For the same molecule, the “Fold, Igfbp5” value [1, 6] was “Up-regulated 1.9 folds”, the “Fold, Irs1” value [1, 6] was “Up-regulated 3.7 folds” and the “Fold, Map2k2” value [1, 6] was “Up-regulated 1.6 folds”. The “Fold, Mdk” value [1, 6] was “Up-regulated 3.4 folds”, the “Fold, Mmp13” value [1, 6] was “Up-regulated 3.0 folds” and the “Fold, Myh1” value [1, 6] was “Up-regulated 3.2 folds”. The “Fold, Nfatc3” value [1, 6] was “Up-regulated 1.5 folds”, the “Fold, Pik3r1” value [1, 6] was “Up-regulated 1.8 folds” and the “Fold, Rps6kb1” value [1, 6] was “Up-regulated 4.7 folds”. For the same molecule, the “Fold, Spp1” value [1, 6] was “Up-regulated 3.6 folds”, the “Fold, Twist 1” value [1, 6] was “Up-regulated 2.1 folds” and the “Fold, Vegfa” value [1, 6] was “Up-regulated 1.5 folds”. For the same molecule, the Fat weight ([2]; Experimental mice, 2.5 nmol/kg peritoneal twice a week, 4 weeks, control 2.53 ± 0.19) was 1.90 ± 0.41 g, the “Body weight at end point” value ([2]; Experimental mice, 2.5 nmol/kg peritoneal twice a week, 4 weeks, control 71.95 ± 6.25) was 72.54 ± 7.24 g and the Body fat ([2]; Experimental mice, (fat weight/body weight)×100%, control 3.68 ± 0.16) was 2.74 ± 0.21%. For the same molecule, the “fat weight compared with control group” value [2, 7] was “obviously decreased”, the “percentage of body fat compared with control group” value [2, 7] was “obviously decreased” and the “luminescent intensities detected from lung, liver, kidney and intestine” value (NF-κB; experimental group (group 3) compared with control group (group 2)) was “obviously decreased”. For the same molecule, the “Fold change of the luciferin value, Intestine” value (NF-κB; [8]) was 1.96, the “Fold change of the luciferin value, Kidney” value (NF-κB; [8]) was 1.08 and the “Fold change of the luciferin value, Liver” value (NF-κB; [8]) was 1.57. For the same molecule, the “Fold change of the luciferin value, Lung” value (NF-κB; [8]) was 1.68, the “Fold change of the luciferin value, Brain” value (NF-κB; [9]) was 1.40 and the “Fold change of the luciferin value, Heart” value (NF-κB; [9]) was 1.13. For the same molecule, the “Fold change of the luciferin value, Ovary” value (NF-κB; [9]) was 1.17, the “Fold change of the luciferin value, Spleen” value (NF-κB; [9]) was 1.08 and the “Fold change of the luciferin value, Stomach” value (NF-κB; [9]) was 1.11. The “products of lipid oxidation (HNE, MDA) in hepatic tissue” value [3] was “obviously decreased” and the “lipid accumulation in the liver” value [4] was “less lipid accumulation”.
